Data reported in the DeepSol protein solubility set.

Assay: soluble on expression in E. coli; label from the status in PepcDB or PDB records

| Sequence | soluble on expression in E. coli |
| --- | --- |
| MIIFSGGTGTPKLLDGLKEILPEEELTVVVNTAEDLWVSGNLISPDLDTVLYLFSDQIDRKRWWGIENDTFGTYERMKELGIEEGLKLGDRDRATHIIRSNIIRDGASLTDSTVKLSSLFGIKANILPMSDDPVSTYIETAEGIMHFQDFWIGKRGEPDVRGVDIRGVSEASISPKVLEAFEKEENILIGPSNPITSIGPIISLPGMRELLKKKKVVAVSPIIGNAPVSGPAGKLMPACGIEVSSMGVAEYYQDFLDVFVFDERDRADEFAFERLGCHASRADTLMTSTEKSKELAEIVVQAFLEHHHHHH | soluble |
| MIIKRNDMAPSVKAGDAILFYRLSQTYKVEEAVVYEDSKTSITKVGRIIAQAGDEVDLTEQGELKINGHIQNEGLTFIKSREANYPYRIADNSYLILNDYYSQESENYLQDAIAKDAIKGTINTLIRLRNH | not soluble |
| MIILQANKIERSFAGEVLFDNINLQVDERDRIALVGKNGAGKSTLLKILVGEEEPTSGEINKKKDISLSYLAQDSRFESENTIYDEMLHVFNDLRRTERQLRQMELEMGEKSGEDLDKLMSDYDRLSENFRQAGGFTYEADIRAILNGFKFDESMWQMKIAELSGGQNTRLALAKMLLEKPNLLVLDEPTNHLDIETIAWLENYLVNYSGALIIVSHDRYFLDKVATITLDLTKHSLDRYVGNYSRFVELKEQKLVTEAKNYEKQQKEIAALEDFVNRNLVRASTTKRAQSRRKQLEKMERLDKPEAGKKSANMTFQSEKTSGNVVLTVENAAVGYDGEVLSQPINLDLRKMNAVAIVGPNGIGKSTFIKSIVDQIPFIKGEKRFGANVEVGYYDQTQSKLTPSNTVLDELWNDFKLTPEVEIRNRLGAFLFSGDDVKKSVGMLSGGEKARLLLAKLSMENNNFLILDEPTNHLDIDSKEVLENALIDFDGTLLFVSHDRYFINRVATHVLELSENGSTLYLGDYDYYVEKKATAEMSQTEEASTSNQAKEASPVNDYQAQKESQKEVRKLMRQIESLEAEIEELESQSQAISEQMLETNDADKLMELQAELDKISHRQEEAMLEWEELSEQV | not soluble |
| MIILYDFLQESSVMPRSKNDSKLKKKSALQSKFKEQQLNHGSKEHKSKFKFSQRKAKKKGPGMTHLPGNIYTLFTPVNGPKSKDEWIDTSKIMLDLHIDNMSSSDYIPSAIDRTDLVMVQSVHLLRKTGGRGLFAREDIPKGTCIGIYTGEVYSEQEFEQYLKEHVGSDKSYAMYVGGRVIDAARKGNLTRYINFSDSQDNAEFVETTLNRKKVAKVITTKNIKAGQQLLINYNTYEEQASRYYYFLNPGDGWLSAQEFYQTYQSQYRLEQMPYNLEGFDLKAGDRVLMTQIGRIILANYSLAKEQELNASDIDLPFLKVGSDEKILDFDEADTFTPLMAACYLGQVENVKWLIEHGANIDQQQSHSGHCPLSLTLKGYSLAKDTQKYIDIIQLLIKNQVNLLVHDRSDKTFLHNAALVLNNLDFQSVVKFLIGQNPIDINEYFTYIDENDFDIVMHCYNNKLFDKALVLLAFYPDYFKRNYMSDNEGHNQFNINAFRKAIKDFNSNERSILLMQLRESGLHLPEDLLEQLGIMDSSITLESKFF | not soluble |
| MIIMGLFDEVVGAFLKGDAGKYQAILSWVEEQGGIQVLLEKLQSGGLGAILSTWLSNQQGNQSVSGEQLESALGTNAVSDLGQKLGVDTSTASSLLAEQLPKIIDALSPQGEVSPQANNDLLSAGMELLKGKLFR | not soluble |
| MIINITILEDNESDFITLSDSIKKWAANTGILINIIWLNSYKKFIKSLPTLKCDLFFSDIELNCNNSFTGIDACKQLRESGYTGIIIFLTAFKEYVFDGYDVQAFNYLLKPINYGTINNCLDKFIHLFSREFYYLEHHHHHH | soluble |
| MIIVHHLNNSRSQRILWLLEELGLPYEIKRYQRDPKTNLAPPELKAIHPLGKSPVIEDGPHVVIESGAIVDYLIRRHGDGRLQPDPASATYDEYVQWLHFAEGSAILPLMLNLYVGRLGDAGAPLHPRIHSELANYLGYLNEALGLTPYLLGDELSGADIQMSFIGEFAKMQGMLQPHPNLAAWVQRCQERPAYRQALEQGGEYSFAK | not soluble |
| MIIVRLCGGLGNQMFQYAAGLAAAHRIGSEVKFDTHWFDATCLHQGLELRRVFGLELPEPSSKDLRKVLGACVHPAVRRLLSRRLLRALRPKSLVIQPHFHYWTGFEHLTDNVYLEGYWQSERYFSNIADIIRQQFRFVEPLDPHNAALMDEMQSGVSVSLHIRRGDYFNNPQMRRVHGVDLSEYYPAAVATMIEKTNAERFYVFSDDPQWVLEHLKLPVSYTVVDHNRGAASYRDMQLMSACRHHIIANSTFSWWGAWLNPRPDKVVIAPRHWFNVDVFDTRDLYCPEWIVLLEHHHHHH | soluble |
| MIKAIIFDVDETLVYYEGYSLREWYEKVGLPAMKELGVIVDWEIFRKMARGELPRSYVEKFQINHVKFWKALDEANRKYREELLKEGKVHTFKDVEALKEIKNLGIKLAAVSNASQDNTELVLRAFDLLKYFDVVYGKDYTYLDGVKPNPYLINKALKALNVEPKEAILVGDSELDIIAGKRAKLRVVQIVREKRVEGADVYINSLWELVDKLKTGEL | soluble |
| MIKESIILKNLEVPTGNICVIKGDKGKLEFLSLGDYGKEVNVKADFLGITRDLEGVPNGKVQPLTKKWVVTMSTQYGCDSGCKFCDVPKVGKGVNVTYNDLKTQLEQALNLHPEIDRTERLNIHYARMGEPSWNNDVLDFTRNLKNIVKPYIGESLIHPVFTTMCPNKNKFLAHRINEWVDIKNNLFQGDAGLQLSINSTNENQRRDMFRGNALTLNEISSIGNDLPMPKGRKYCLNFALADEYEVDAKVLKKLFDPSKFMVKITPLHKTVSSIENDIKTTKGYVSYTPYKDIENDLKKMGFDVLVFVPSYDEDLGRITCGNVILSGSLPKCKYKINLEHHHHHH | not soluble |
| MIKLENEVLLVEMKTAGAELTRIFHKDTGLEYLWNADSKFWGRHSPVLFPTVGRLVEDTYLVDGKPYHLGQHGFARDRDFQVVEQTEKSVRFELDADEDSLAVYPYKFKLSIIYTIEKNTVAVSYEVENTDNKRIYFSIGAHPAFNLPLTDGTTFEDYYLDFGTEENLETLCLEGPYRSGEIKKVVDEAARYLPLNYDLFKNDALIFEALKQKEMTIKSDKTPHFVKVSFPEFPFVGVWTAKAGTPFLCIEPWYGIADGAGESVELRDKAGIEHLEPEAVFASEYEITVGLEHHHHHH | soluble |
| MIKQNSFVPYPEAMLPKGFKYPQSYLKLAQSTHAINYDEQYSFPWWFENAESNISEVIDIYFEITGIPNLLPFARNQEWAACFDISDKSGNPKIIVVNLDNTKYYETFENFDTWLKEAENDGW | soluble |
| MIKSYKIRGTSLTVNRSDSYPDACNWTADSFGMLFYDPEYDLSTESLSITLDAGNDWVPEGGLVYESLPVKVTYENPEMMDYGTDWFNQGYSALGWNGEEYAYLGTDRGIVNILLEEDEKILYPNEEYDLKEGYTLKVTDLASDKACLTLSRNKLPVYSSIISPGKSADLGTHTFLYKKELNGVEVPLFSVYVDSVIQGDELSAVNLKHLLHFSDSPLELNYGKEYGELTIVETYPKLRLENKHVVWSGSDINVTEDIWIGRFEKKTAGNLFVTFYPYMNKVENVRSILPSVSSWSIPAMSIEEYLIGVLEHHHHHH | not soluble |
| MIKTLKEHTKIVRSVTFSPNGKYLAVGDICGTVEIWRVL | soluble |
| MIKVKEDKNEQVKKRWGDKPYYSLNYFLREKFQDKVFKISLDAGFSCPNRDGTISRGGCMFCSERGSGDFAGNRKFSISTQFEDIKDMMKNKWKNGKYIAYFQAYTNTYAPIKVLREKYSEAISKDGVVGLAIATRPDCLSEEVLDLIQEFSKRIYVWVELGLQTANDKVAKVINRGYDTIVFDDAVKKLRERKIDVVVHTIFGLPGEKPKDMLSTIDYVAHKEVQGIKIHLLHLMRGTPLVELYNNGQLTFMSEEEYVETVCRAITMLPQNIV | not soluble |
| MILHAQAKHGKLGLPWLVFLHGFSGDCHEWQEVGEAFADYSRLYVDLLGHGGSAAISVDGFDDVTDLLRKTLVSYNILDFWLVGYSLGGRVAMMAACQGLAGLCGVIVEGGHPGLQNAEQRAERQRSDRQWAQRFRTEPLTAVFADWYQQPVFASLNDDQRRELVALRSNNNGATLAAMLEATSLAVQPDLRANLSARTFAFYYLCGERDSKFRALAAELAADCHVIPRAGHNAHRENPAGVIASLAQILRF | not soluble |
| MILLPSIRLPETAMNTDSPINRVEQVQVDDLACWRIHTAHGEALIAQQGAQLLSYQPHEQPPLVWLSDEAGYRRGQSVRGGVPVCWPWFGPLERNPQEVRGQVEDGLKAPAHGLVRAVDWKIDDIAEEDGDLCVSFRLDAPDGLPGWPHPAALRMLFRFGERLTLRLTSENLGSKPLVLSQALHTYFAVSDSREIAIEGLEGARYIETLENWEERTQHGAVRVKGELDRIYLGLERDLLIKDPRWERSIHLHALDSRSAVVWNPWVDKSRRLSQFADDAWQQMLCIETGRVWDDLMVVAPGRSESFGVQIWSEPLKRP | soluble |
| MILMIDNYDSFTFNLVQFLGELGQELVVKRNDEVTISDIENMKPDFLMISPGPCSPNEAGISMDVIRYFAGKIPIFGVCLGHQSIAQVFGGEVVRAERLMHGKTSPMHHDGKTIFSDIPNPFTATRYHSLIVKKETLPDCLEVTSWTEEGEIMALRHTTLPIEGVQFHPESIMTSHGKELLQNFIRKYSPSVTSC | not soluble |
| MILRIIYTLLNYLSQPVLLLMMWRKTARHTKQTSRLWERYGIYRQLTAPRPQGIVIHAASVGEVIAATPLINAIQTHYPALPITVTTFTQTASERVQAIFANTVSHIYLPFDLPFAVNRFIKFTQPRLFIVIETELWPNLITQTYRQHIPFIIANGRLSARSLKHYQWFNPALQKILNQISMIIAQDQISAERYAQLGFNSQQLTTAGNLKFDLEISEQLRQTIQKTKQTLTLGNRPVWIAGSTHEGEDEIILATHQQLLSEWPDLLLILAPRHPNRFKNVENLLIKSELCYVKRSQQCPLTDHTQVLLADTLGEMMILYGLANIAFVGGSLIKHGGHNPLEPIAFGLPIISGIHTFNFLEIFNKLKAIHGVIEVTNDPADLAQAVNLLLKDPKKYTAIAQAGLSMLKANQGSLQRHLQLLAPYLEKLEHHHHHH | not soluble |
| MIMNHMPKKIVIIGAGAGGGISLSQLRRALSNEDVEITIIDQTGRTDFQPSYVFLALGEKKPEEISRDISQLNDSRVRAVKDTVISVDAANRVVKTSGGSYQYDYLIMSPGPSIDPSSLKGHEATHSVWTMEDSLRLRDAVKNFKGGNVLISVSTQWYKCPPVPWEMALLLDDYFRRKNIRDKVKITVAHPVSRPMEMYGPGLSEPFSKMLDDRNIEGIYGRRVSSVDAEKKRAIMDNGETVGFDLSIVAPPHLPPDFIKNNDDLRSPRGWAATNIRDFRNPKYEDVFAIGDVIAPTIQIGMAGVLAHFQADTVSSAIAEEIAGYPFMEYNKVAVCIIATGGSGVFSYCDLAGKLTDPKVKFPECRMIGNDPLFRFAHDLYEVNFLSSIYGSRLEHHHHHH | not soluble |
| MIMSEMITRQQVTSGETIHVRTDPTACIGSHPNCRMFIDSLTIAGEKLDKNIVAIDGGEDVTKADSATAAASVIRMSITPGSINPTISITLGVLIKSNVRTKIEEKVSSILQASATDMKIKLGNSNKKQEYKTDEAWGIMIDLSNLELYPISAKAFSISIEPTELMGVSKDGMRYHIISIDGLTTSQGSLPVCCAASTDKGVAKIGYIAAA | soluble |
| MINAVGNPQTLLLLGGTSEIGLAICEEYLKKAPMRVILAALPGDPGRDAAVAQLKAAGANAVDVIDFDAVDTESHPKVIDEAWAKSDVDVAIVAFGLLGDAEELWQNQRKAVQIAEVNYTAAVSVGVLVGEKMKAQGFGQIIAMSSAAGERVRRSNFVYGSTKAGLDGFYLGLGEALREFGPRVLVIRPGQVRTRMSADVKEAPLTVNKEDVAKLAVTSAEKGKDLVWAPGAFRYVMMILRHIPRPIFKKLPI | not soluble |
